According to the supplement of paper PMC10065799, “High-throughput profiling of sequence recognition by tyrosine kinases and SH2 domains using bacterial peptide display” (eLife, 2023):

Columns and labels:
MERTK = MERTK (UniProt Q12866); experiment: phosphorylation enrichment, bacterial display (enrichment ratio); higher = better substrate or ligand; peptides without Tyr show the background
Hck = Hck (UniProt P08631); experiment: as above
FGFR3 = FGFR3 (UniProt P22607); experiment: as above
FGFR1 = FGFR1 (UniProt P11362); experiment: as above
EPHB1 = EPHB1 (UniProt P54762); experiment: as above
Fyn = Fyn (UniProt P06241); experiment: as above
AncSZ = experiment: as above
EPHB2 = EPHB2 (UniProt P29323); experiment: as above
c-Abl (mouse) = experiment: as above
Fer (mouse) = experiment: as above
c-Src = experiment: as above
Jak2 = Jak2 (UniProt O60674); experiment: as above
Fes = Fes (UniProt P07332); experiment: as above
Grb2 SH2 = Grb2 SH2 (UniProt P62993); experiment: SH2 binding enrichment of the phosphorylated peptide, bacterial display (enrichment ratio); higher = better substrate or ligand; peptides without Tyr show the background
SHP2-C SH2 = experiment: as above
c-Src SH2 = experiment: as above
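Throughout, for SH2 binding enrichment of the phosphorylated peptide, bacterial display: peptide library displayed on the E. coli surface as eCPX fusions, selected cells deep-sequenced, score is each peptide's frequency after selection divided by its frequency in the input.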
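Throughout, for phosphorylation enrichment, bacterial display: 11-residue human phosphosite peptides and single-mutation variants displayed on the E. coli surface, counted by deep sequencing, each peptide's frequency after selection divided by its frequency in the unselected input library; frequency after pTyr selection over input frequency; kinase dosed for 20-30% of maximal phosphorylation in three min.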

Chain of EPHB1 (P54762 whole entry, looked up): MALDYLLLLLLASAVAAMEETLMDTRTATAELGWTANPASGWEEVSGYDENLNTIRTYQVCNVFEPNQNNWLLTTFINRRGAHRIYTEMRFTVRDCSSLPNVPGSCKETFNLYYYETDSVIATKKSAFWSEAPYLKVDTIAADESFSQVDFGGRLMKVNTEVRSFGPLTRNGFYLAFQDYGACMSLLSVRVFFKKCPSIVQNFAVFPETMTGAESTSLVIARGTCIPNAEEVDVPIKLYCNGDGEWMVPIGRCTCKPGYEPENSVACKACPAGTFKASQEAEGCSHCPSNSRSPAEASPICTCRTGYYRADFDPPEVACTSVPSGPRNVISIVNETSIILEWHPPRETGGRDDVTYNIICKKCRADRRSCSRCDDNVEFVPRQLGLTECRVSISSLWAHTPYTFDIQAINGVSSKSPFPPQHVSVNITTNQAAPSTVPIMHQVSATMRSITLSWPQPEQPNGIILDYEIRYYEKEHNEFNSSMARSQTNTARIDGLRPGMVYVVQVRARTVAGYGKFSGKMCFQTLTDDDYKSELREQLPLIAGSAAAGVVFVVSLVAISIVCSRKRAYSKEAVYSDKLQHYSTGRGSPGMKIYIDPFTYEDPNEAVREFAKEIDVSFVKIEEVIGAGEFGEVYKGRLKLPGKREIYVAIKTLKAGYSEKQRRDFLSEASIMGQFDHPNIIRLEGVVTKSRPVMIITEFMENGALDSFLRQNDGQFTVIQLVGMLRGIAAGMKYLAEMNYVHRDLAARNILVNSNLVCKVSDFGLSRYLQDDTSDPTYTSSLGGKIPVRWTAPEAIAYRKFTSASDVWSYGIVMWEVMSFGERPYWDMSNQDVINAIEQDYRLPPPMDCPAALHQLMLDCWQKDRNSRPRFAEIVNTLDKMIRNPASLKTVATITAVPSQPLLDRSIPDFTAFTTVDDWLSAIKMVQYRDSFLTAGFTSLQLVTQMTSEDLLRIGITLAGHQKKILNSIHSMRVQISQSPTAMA
Chain of Jak2 (O60674 whole entry, looked up): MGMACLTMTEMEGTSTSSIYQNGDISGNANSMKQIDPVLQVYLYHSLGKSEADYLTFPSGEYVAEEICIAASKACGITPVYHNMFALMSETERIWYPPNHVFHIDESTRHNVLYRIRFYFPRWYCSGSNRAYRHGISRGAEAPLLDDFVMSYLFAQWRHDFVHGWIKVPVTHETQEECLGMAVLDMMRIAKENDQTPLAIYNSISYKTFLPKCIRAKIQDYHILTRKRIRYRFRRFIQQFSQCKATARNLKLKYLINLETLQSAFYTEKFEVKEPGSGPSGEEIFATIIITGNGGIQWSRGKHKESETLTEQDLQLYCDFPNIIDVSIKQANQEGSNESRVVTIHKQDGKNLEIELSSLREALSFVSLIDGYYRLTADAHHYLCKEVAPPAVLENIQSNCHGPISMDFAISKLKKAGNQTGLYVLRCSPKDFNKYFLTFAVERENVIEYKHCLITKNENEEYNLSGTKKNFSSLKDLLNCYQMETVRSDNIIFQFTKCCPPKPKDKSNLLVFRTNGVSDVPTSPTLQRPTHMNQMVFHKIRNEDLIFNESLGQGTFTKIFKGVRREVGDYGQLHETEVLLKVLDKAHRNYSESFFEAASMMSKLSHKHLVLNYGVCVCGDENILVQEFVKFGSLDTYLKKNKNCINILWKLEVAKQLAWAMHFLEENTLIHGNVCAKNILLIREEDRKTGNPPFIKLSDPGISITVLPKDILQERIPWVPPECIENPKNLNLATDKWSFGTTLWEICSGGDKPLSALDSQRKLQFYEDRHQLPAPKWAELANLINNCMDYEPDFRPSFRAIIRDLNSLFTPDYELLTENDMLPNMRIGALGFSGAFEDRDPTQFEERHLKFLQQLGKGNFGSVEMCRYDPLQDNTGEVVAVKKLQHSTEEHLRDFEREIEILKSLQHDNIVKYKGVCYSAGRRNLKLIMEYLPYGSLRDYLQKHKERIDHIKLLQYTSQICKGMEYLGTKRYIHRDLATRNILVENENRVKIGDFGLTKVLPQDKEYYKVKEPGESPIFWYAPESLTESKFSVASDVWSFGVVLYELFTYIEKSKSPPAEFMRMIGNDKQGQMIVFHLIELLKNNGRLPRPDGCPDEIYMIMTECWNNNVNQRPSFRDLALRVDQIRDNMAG
Chain of FGFR3 (P22607 whole entry, looked up): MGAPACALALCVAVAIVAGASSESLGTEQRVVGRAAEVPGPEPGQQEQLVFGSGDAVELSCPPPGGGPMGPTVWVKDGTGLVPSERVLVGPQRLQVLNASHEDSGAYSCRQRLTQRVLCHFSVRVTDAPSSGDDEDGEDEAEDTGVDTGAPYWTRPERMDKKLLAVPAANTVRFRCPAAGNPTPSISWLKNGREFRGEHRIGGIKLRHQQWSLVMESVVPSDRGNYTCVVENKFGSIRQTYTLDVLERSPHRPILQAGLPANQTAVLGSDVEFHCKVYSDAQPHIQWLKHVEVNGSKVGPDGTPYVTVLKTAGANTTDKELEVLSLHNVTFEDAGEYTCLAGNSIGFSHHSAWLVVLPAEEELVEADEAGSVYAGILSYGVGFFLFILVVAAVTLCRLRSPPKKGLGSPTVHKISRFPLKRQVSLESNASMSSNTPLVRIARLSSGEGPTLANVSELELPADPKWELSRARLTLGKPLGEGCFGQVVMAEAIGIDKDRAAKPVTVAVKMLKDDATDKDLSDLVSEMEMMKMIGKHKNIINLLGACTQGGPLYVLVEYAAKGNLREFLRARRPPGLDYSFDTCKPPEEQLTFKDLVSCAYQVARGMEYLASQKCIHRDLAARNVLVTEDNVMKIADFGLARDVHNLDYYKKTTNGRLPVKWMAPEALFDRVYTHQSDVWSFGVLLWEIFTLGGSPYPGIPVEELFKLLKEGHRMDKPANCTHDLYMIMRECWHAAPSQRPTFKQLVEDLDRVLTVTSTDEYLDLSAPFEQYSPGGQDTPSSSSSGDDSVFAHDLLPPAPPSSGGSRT
Chain of Fes (P07332 whole entry, looked up): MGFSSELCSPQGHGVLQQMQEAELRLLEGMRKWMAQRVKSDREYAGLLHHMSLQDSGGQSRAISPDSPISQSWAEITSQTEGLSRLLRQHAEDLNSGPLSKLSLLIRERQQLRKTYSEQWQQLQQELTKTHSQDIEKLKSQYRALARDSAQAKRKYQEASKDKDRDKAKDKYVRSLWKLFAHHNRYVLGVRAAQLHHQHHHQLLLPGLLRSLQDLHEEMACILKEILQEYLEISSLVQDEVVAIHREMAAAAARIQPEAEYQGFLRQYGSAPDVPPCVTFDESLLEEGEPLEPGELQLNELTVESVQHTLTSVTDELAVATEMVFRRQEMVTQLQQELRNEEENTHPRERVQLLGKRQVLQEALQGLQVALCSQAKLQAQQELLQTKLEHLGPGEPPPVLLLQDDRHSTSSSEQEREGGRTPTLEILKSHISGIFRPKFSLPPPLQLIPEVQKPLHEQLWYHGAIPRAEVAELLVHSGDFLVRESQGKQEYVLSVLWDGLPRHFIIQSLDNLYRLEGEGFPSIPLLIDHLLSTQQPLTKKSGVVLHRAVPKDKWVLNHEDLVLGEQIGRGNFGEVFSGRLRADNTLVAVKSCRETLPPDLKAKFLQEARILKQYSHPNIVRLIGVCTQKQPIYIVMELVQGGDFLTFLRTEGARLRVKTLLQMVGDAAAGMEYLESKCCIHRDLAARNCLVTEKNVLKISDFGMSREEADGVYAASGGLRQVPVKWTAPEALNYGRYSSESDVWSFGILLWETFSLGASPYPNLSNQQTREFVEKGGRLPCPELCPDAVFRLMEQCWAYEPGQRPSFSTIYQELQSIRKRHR
Chain of FGFR1 (P11362 whole entry, looked up): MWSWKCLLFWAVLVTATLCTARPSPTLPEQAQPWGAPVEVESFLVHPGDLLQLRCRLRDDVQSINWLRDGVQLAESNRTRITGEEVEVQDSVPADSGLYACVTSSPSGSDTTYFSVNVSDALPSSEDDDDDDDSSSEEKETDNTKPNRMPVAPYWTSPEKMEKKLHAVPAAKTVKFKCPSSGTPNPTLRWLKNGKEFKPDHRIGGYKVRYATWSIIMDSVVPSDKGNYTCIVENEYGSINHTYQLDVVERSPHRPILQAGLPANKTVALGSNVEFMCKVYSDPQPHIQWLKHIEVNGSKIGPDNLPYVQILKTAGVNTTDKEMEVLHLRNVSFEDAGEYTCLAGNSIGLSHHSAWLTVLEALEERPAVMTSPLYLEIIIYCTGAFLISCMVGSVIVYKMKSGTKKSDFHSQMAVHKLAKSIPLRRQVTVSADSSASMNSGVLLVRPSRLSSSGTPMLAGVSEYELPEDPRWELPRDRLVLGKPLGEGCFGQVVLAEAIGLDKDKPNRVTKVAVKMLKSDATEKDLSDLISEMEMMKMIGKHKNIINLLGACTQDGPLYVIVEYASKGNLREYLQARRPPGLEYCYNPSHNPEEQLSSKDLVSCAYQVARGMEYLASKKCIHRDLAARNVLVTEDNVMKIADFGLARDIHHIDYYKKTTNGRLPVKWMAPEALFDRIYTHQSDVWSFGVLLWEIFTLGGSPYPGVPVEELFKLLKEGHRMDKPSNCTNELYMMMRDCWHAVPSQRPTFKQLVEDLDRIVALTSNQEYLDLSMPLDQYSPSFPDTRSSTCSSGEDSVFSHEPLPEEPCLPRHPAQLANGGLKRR
Chain of Fyn (P06241 whole entry, looked up): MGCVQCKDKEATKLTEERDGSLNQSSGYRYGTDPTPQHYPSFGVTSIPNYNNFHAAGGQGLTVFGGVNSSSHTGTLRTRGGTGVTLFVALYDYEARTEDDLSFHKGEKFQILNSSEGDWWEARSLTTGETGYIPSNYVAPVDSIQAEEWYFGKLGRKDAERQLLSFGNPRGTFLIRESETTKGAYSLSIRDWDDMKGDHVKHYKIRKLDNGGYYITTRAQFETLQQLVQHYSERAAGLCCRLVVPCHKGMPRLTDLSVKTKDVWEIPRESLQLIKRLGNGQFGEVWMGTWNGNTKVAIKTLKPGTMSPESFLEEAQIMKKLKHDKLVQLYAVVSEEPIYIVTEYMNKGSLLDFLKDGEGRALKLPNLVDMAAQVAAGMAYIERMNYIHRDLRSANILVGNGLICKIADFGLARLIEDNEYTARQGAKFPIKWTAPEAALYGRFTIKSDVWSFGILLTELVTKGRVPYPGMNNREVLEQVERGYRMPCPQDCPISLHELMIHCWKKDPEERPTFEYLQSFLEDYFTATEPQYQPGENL

| SH2 binding enrichment (Grb2 SH2) | SH2 binding enrichment (SHP2-C SH2) | SH2 binding enrichment (c-Src SH2) | Sequence | phosphorylation enrichment (MERTK) | phosphorylation enrichment (Hck) | phosphorylation enrichment (FGFR3) | phosphorylation enrichment (FGFR1) | phosphorylation enrichment (EPHB1) | phosphorylation enrichment (Fyn) | phosphorylation enrichment (AncSZ) | phosphorylation enrichment (EPHB2) | phosphorylation enrichment (c-Abl (mouse)) | phosphorylation enrichment (Fer (mouse)) | phosphorylation enrichment (c-Src) | phosphorylation enrichment (Jak2) | phosphorylation enrichment (Fes) |
| --- | --- | --- | --- | --- | --- | --- | --- | --- | --- | --- | --- | --- | --- | --- | --- | --- |
| 0.664 | 0.784 | 7.22 | NDTAGYFVIGG [SEL1L3_Y399_I401V] | 0.872 | 0.75 | 1.64 | 2.16 | 0.669 | 0.848 | 1.17 | 0.642 | 0.781 | 0.581 | 0.727 | 6.88 | 1.1 |
| 0.976 | 0.927 | 0.661 | NREGVYTDFAP [TGFBI_Y537_V539D] | 1.71 | 2.95 | 0.608 | 0.645 | 0.578 | 9.31 | 0.843 | 0.624 | 0.868 | 2.51 | 7.49 | 0.823 | 1.13 |
| 1.15 | 0.938 | 2.86 | NHQYDYTFHWT [CSNK1A1_Y294_D297H] | 3.15 | 0.758 | 3.88 | 5.52 | 3.18 | 0.602 | 2.13 | 3.07 | 0.7 | 9.26 | 1.84 | 0.892 | 0.938 |
| 1.1 | 0.738 | 0.717 | WCSNDYLGMSQ [ALAS2_Y199_R204Q] | 0.478 | 0.738 | 2.11 | 3.03 | 1.52 | 0.541 | 2.88 | 0.944 | 0.782 | 0.642 | 1.06 | 4.19 | 1.02 |
| 1.04 | 0.657 | 0.546 | DPLLTYQFPPK [LMNA_Y481_R482Q] | 0.796 | 0.986 | 1.17 | 1.69 | 0.597 | 1.24 | 1.25 | 1.27 | 0.549 | 0.498 | 1.54 | 0.566 | 0.773 |
| 1.09 | 1.12 | 1.13 | ICANKYMVKSC [RPL10_Y75] | 0.409 | 0.424 | 0.514 | 0.385 | 0.476 | 0.406 | 0.719 | 0.445 | 0.524 | 0.464 | 0.44 | 0.735 | 0.815 |
| 0.804 | 0.666 | 0.457 | YRDALYKSMVD [PHEX_Y250_F252S] | 0.4 | 0.525 | 0.608 | 0.458 | 0.564 | 0.495 | 0.757 | 0.805 | 0.592 | 0.421 | 0.449 | 0.717 | 0.856 |
| 0.882 | 0.699 | 0.506 | PIAPVYAASMV [ACAT1_Y331] | 5.19 | 13.5 | 0.548 | 0.744 | 2.45 | 14.3 | 0.837 | 2.19 | 48.5 | 8.12 | 10.5 | 1.34 | 1.07 |
| 0.821 | 0.955 | 0.429 | YKGKKYKPLDL [RPL35_Y78] | 0.581 | 0.404 | 0.45 | 0.405 | 0.283 | 0.511 | 0.462 | 0.391 | 0.508 | 0.537 | 0.541 | 0.51 | 0.541 |
| 0.872 | 0.685 | 0.501 | YAANYYKLLGN [ROR2_Y646_D644N] | 0.832 | 0.406 | 1.35 | 1.76 | 0.566 | 0.46 | 0.566 | 0.546 | 0.579 | 0.506 | 0.462 | 0.917 | 0.609 |
| 0.934 | 1.02 | 4.14 | LRVGFYESDVM [A2M_Y708] | 2.61 | 0.996 | 2.89 | 1.39 | 1.86 | 1.28 | 2.97 | 0.934 | 1.9 | 1.62 | 1.33 | 2.04 | 3.12 |
| 0.754 | 0.469 | 0.362 | GSIQQYIFKQE [PRG4_Y1271_YF] | 0.452 | 0.537 | 0.574 | 0.531 | 0.476 | 0.429 | 0.836 | 0.573 | 0.499 | 0.451 | 0.545 | 0.508 | 0.738 |
| 0.94 | 0.945 | 0.632 | TYGNLYGSRKQ [YIPF7_Y59_A54T] | 0.89 | 13.2 | 0.467 | 0.486 | 0.434 | 6.14 | 0.655 | 0.74 | 0.864 | 1.38 | 7.59 | 0.73 | 0.6 |
| 0.834 | 0.558 | 0.486 | QMEKICTQQIQ [CCNB1IP1_Y125_Y125C] | 0.461 | 0.409 | 0.948 | 1 | 0.707 | 0.486 | 1.36 | 0.647 | 0.986 | 0.537 | 0.573 | 1.24 | 1.64 |
| 1.09 | 0.604 | 0.591 | PHMQTYEVDHN [SDHB_Y61_L65H] | 0.425 | 0.506 | 0.783 | 0.676 | 0.758 | 1.03 | 1.31 | 3.83 | 0.864 | 0.571 | 1.04 | 0.94 | 1.01 |
| 0.663 | 0.568 | 0.439 | KPIETYFSKNF [PLP1_Y50_L46P_YF] | 0.465 | 0.436 | 0.555 | 0.417 | 0.506 | 0.544 | 0.656 | 0.497 | 0.53 | 0.379 | 0.44 | 0.636 | 0.775 |
| 0.887 | 0.859 | 0.539 | NFATLYLKIYH [PDE6B_Y219] | 0.392 | 0.42 | 0.709 | 0.464 | 0.564 | 0.42 | 0.989 | 0.574 | 0.827 | 0.492 | 0.403 | 1.27 | 1.28 |

| SH2 binding enrichment (Grb2 SH2) | SH2 binding enrichment (SHP2-C SH2) | SH2 binding enrichment (c-Src SH2) | Sequence | phosphorylation enrichment (MERTK) | phosphorylation enrichment (Hck) | phosphorylation enrichment (FGFR3) | phosphorylation enrichment (FGFR1) | phosphorylation enrichment (EPHB1) | phosphorylation enrichment (Fyn) | phosphorylation enrichment (AncSZ) | phosphorylation enrichment (EPHB2) | phosphorylation enrichment (c-Abl (mouse)) | phosphorylation enrichment (Fer (mouse)) | phosphorylation enrichment (c-Src) | phosphorylation enrichment (Jak2) | phosphorylation enrichment (Fes) |
| --- | --- | --- | --- | --- | --- | --- | --- | --- | --- | --- | --- | --- | --- | --- | --- | --- |
| 0.679 | 0.558 | 0.388 | QSLEPYTKQQL [STAT3_Y640_V637L] | 0.304 | 0.459 | 0.603 | 0.452 | 0.497 | 0.353 | 0.537 | 0.371 | 0.498 | 0.424 | 0.309 | 0.48 | 0.745 |
| 0.815 | 0.436 | 0.604 | QLDQHYLLVPE [DDX49_Y223_R222H] | 0.825 | 0.893 | 2.09 | 1.6 | 1.21 | 0.955 | 1.16 | 1.09 | 0.642 | 0.643 | 0.654 | 1.14 | 1.1 |
| 0.837 | 0.721 | 0.579 | HNLPIYEGFAL [ACTA1_Y168_V165L_YF] | 12.6 | 12.8 | 1.13 | 0.677 | 17.5 | 14.1 | 1.86 | 24.3 | 14 | 21.9 | 9.44 | 0.996 | 2.8 |
| 1.97 | 1.78 | 1.27 | RCFVFYFSFLL [PTEN_Y177_R173C_YF] | 0.38 | 0.426 | 0.613 | 0.506 | 0.353 | 0.355 | 0.59 | 0.434 | 0.732 | 0.432 | 0.591 | 0.821 | 0.626 |
| 0.745 | 0.848 | 0.537 | KIVYVYVKKRS [DNAI2_Y7_E2K] | 0.507 | 0.587 | 0.654 | 0.531 | 0.577 | 0.515 | 1.13 | 0.538 | 0.758 | 0.514 | 0.433 | 1.17 | 1.17 |
| 0.728 | 0.557 | 0.841 | METKGYQSLPE [NR3C2_Y6_H7Q] | 0.361 | 0.423 | 0.568 | 0.449 | 0.495 | 0.421 | 0.682 | 0.449 | 0.683 | 0.448 | 0.326 | 0.77 | 0.825 |
| 0.989 | 0.642 | 0.597 | DLVSEYQQYQD [TUBB3_Y422] | 0.488 | 0.656 | 0.858 | 0.523 | 0.721 | 0.706 | 1.57 | 0.704 | 1.04 | 0.709 | 0.677 | 1.42 | 1.37 |
| 0.798 | 0.755 | 0.532 | CRAVKYLQMVD [AVPR2_Y117_G122D] | 0.354 | 0.456 | 0.585 | 0.427 | 0.508 | 0.503 | 0.71 | 0.456 | 0.535 | 0.419 | 0.318 | 0.675 | 0.922 |
| 0.938 | 0.658 | 0.808 | NTCNRYCRDEI [ITGB3_Y660] | 0.535 | 0.407 | 0.486 | 0.492 | 0.567 | 0.485 | 0.794 | 0.427 | 0.596 | 0.43 | 0.5 | 0.714 | 0.777 |
| 0.628 | 0.713 | 0.475 | DGTESYLTVSS [PLK1_Y462] | 0.387 | 0.443 | 0.59 | 0.454 | 0.447 | 0.453 | 0.89 | 0.467 | 0.687 | 0.487 | 0.465 | 0.845 | 0.954 |
| 0.852 | 0.681 | 0.549 | FADIAYNYRHA [PAH_Y166_G171A] | 0.466 | 0.415 | 0.542 | 0.322 | 0.593 | 0.425 | 0.578 | 0.437 | 0.474 | 0.424 | 0.503 | 0.648 | 0.779 |
| 0.882 | 0.659 | 1.15 | KPNMNYDKLSQ [FLI1_Y332_R337Q] | 0.394 | 0.431 | 0.447 | 0.468 | 0.418 | 0.422 | 0.495 | 0.446 | 0.431 | 0.462 | 0.478 | 0.612 | 0.578 |
| 0.994 | 0.61 | 0.481 | WNGDKYAATTT [TRIM39_Y439] | 0.381 | 0.52 | 0.679 | 0.654 | 0.462 | 0.48 | 0.717 | 0.592 | 0.513 | 0.446 | 0.421 | 0.729 | 0.731 |
| 0.901 | 0.758 | 0.525 | SAEEDYMADAK [KCNT1_Y876] | 0.486 | 0.586 | 0.843 | 0.634 | 0.733 | 0.652 | 1.3 | 0.662 | 0.686 | 0.632 | 0.473 | 1.25 | 1.36 |
| 0.829 | 1.24 | 0.982 | LKSEMYQKLFK [RGS13_Y146_L150F] | 0.7 | 0.756 | 0.923 | 0.715 | 0.5 | 0.493 | 1.02 | 0.614 | 0.769 | 0.596 | 0.626 | 1.77 | 0.993 |
| 1.14 | 1.11 | 0.765 | RTLIRYAKLGN [BEST1_Y131_N133K] | 1.02 | 0.849 | 0.612 | 0.632 | 0.854 | 0.848 | 1.4 | 0.775 | 1.07 | 0.561 | 1.02 | 1.23 | 1.27 |
